This note sets out measurements from patent US20240034757A1 (OXFORD UNIVERSITY INNOVATION, published 2024).

Substitutions are numbered along the chain they refer to. Numbers in names are those of the source.

In assay [1] the target is T1, CCL7_HUMAN (human, UniProt P80098 24-99). In words: cell-based or functional assay.
Assay [2] has as its target T2, CCL3_HUMAN (human, UniProt P10147 24-92).
T2 sequence: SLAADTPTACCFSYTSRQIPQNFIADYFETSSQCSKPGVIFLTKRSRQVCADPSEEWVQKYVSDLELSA
In words: cell-based or functional assay.

The target in assay [3] is T3, CCL2_HUMAN (human, UniProt P13500 24-99). In words: cell-based or functional assay.
T3 sequence (P13500 24-99 limits assumed): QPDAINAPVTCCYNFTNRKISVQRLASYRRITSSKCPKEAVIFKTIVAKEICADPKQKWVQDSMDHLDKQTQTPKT
The target of assay [4] is T4, CCL3L1_HUMAN (human, UniProt P16619 24-93).
T4 sequence: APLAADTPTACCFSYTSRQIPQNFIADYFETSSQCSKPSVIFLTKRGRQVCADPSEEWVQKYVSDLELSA
The experiment in a line: cell-based or functional assay.

In assay [5] the target is T5, CCL8_HUMAN (human, UniProt P80075 24-99).
T5 sequence (looked up): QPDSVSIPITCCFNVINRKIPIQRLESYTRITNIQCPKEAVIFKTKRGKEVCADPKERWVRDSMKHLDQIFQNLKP
The experiment in a line: cell-based or functional assay.

Assay [6] concerns the target T6, CCL5_HUMAN (human, UniProt P13501 24-91).
T6 sequence: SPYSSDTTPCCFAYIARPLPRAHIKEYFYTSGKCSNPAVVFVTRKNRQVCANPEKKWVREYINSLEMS
In words: cell-based or functional assay.

For the next assay, the target named is T7, CCL27_HUMAN (human, UniProt Q9Y4X3 25-112).
T7 sequence: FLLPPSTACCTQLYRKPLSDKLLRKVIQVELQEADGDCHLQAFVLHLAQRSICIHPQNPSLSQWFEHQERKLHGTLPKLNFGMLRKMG
The experiment in a line: BLI.

For assay [7], the target named is T1, CCL7_HUMAN. The experiment in a line: BLI. For orientation: Biolayer interferometry detects binding as a change in optical thickness at a sensor tip.
The target of another assay is T8, CCL19_HUMAN (human, UniProt Q99731 22-98).
T8 sequence: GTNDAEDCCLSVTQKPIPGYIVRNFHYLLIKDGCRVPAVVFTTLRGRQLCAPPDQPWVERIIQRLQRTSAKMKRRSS
The experiment in a line: BLI.

In assay [8] the target is T2, CCL3_HUMAN. In words: BLI.
The next assay addresses T9, CCL16_HUMAN (human, UniProt O15467 24-120).
T9 sequence: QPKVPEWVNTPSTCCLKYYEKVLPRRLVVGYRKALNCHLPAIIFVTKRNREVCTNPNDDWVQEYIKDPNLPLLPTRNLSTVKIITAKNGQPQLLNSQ
In words: BLI.

In assay [9] the target is T3, CCL2_HUMAN. In words: BLI.
Another assay addresses T10, CCL23_HUMAN (human, UniProt P55773 22-120).
T10 sequence: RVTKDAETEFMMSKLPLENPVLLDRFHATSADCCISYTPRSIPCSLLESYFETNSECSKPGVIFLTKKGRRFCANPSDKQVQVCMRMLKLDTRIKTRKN
In words: BLI.

Assay [10] concerns the target T4, CCL3L1_HUMAN. The experiment in a line: BLI.
The next assay addresses T11, CCL21_HUMAN (human, UniProt O00585 24-134).
T11 sequence: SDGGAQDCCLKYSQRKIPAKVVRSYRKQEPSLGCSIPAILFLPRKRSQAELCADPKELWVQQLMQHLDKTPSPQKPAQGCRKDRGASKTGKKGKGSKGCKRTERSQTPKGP
The experiment in a line: BLI.

Another assay concerns the target T12, CCL24_HUMAN (human, UniProt O00175 27-104).
T12 sequence: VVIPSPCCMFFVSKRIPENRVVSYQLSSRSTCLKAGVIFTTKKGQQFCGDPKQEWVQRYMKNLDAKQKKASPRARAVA
In words: BLI.

The target of the next assay is CCL20_HUMAN (human, UniProt P78556 27-96). In words: BLI.
Chain of CCL20_HUMAN (P78556 27-96 limits assumed): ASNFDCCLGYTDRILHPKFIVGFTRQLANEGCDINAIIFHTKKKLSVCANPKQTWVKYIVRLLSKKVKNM
For a further assay, the target named is T13, CCL4L1_HUMAN (human, UniProt Q8NHW4 24-92).
T13 sequence: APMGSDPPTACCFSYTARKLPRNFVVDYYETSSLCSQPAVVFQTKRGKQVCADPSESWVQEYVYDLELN
In words: BLI.

The target of the next assay is T14, CCL22_HUMAN (human, UniProt O00626 25-93).
T14 sequence: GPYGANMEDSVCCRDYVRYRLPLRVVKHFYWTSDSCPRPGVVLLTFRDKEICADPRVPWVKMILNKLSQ
In words: BLI.

For assay [11], the target named is T5, CCL8_HUMAN. In words: BLI.
The next assay concerns the target T15, CCL1_HUMAN (human, UniProt P22362 24-96).
T15 sequence: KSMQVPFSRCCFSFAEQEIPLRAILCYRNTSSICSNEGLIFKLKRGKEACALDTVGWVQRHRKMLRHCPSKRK
The experiment in a line: BLI.

A further assay addresses T16, CCL4_HUMAN (human, UniProt P13236 24-92).
T16 sequence: T13 sequence with G47S
In words: BLI.

The target in another assay is T17, CCL15_HUMAN (human, UniProt Q16663 22-113).
T17 sequence: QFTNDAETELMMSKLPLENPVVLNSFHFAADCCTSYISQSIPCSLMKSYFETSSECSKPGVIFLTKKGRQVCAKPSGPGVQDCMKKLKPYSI
In words: BLI.

The target of another assay is T18, CCL18_HUMAN (human, UniProt P55774 21-89).
T18 sequence: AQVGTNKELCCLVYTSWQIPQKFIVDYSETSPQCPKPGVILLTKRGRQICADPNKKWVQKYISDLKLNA
The experiment in a line: BLI.

The target of assay [12] is T6, CCL5_HUMAN. The experiment in a line: BLI.
The target of another assay is T19, CCL14_HUMAN (human, UniProt Q16627 22-93).
T19 sequence: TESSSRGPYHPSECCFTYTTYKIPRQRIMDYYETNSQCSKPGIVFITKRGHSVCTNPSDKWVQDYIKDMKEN
In words: BLI.

In a further assay the target is CCL13_HUMAN (human, UniProt Q99616 24-98). The experiment in a line: BLI.
Chain of CCL13_HUMAN (Q99616 24-98 limits assumed): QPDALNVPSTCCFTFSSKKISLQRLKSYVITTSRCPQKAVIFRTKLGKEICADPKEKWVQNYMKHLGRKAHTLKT
For another assay, the target named is T20, CCL17_HUMAN (human, UniProt Q92583 24-94).
T20 sequence: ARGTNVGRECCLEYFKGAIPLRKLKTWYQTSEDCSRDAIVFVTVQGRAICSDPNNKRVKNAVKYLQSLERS
In words: BLI.

The target of another assay is CCL11_HUMAN (human, UniProt P51671 24-97). The experiment in a line: BLI.
Chain of CCL11_HUMAN (P51671 24-97 limits assumed): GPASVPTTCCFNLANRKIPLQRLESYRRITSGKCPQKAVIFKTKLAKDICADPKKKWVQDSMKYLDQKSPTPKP
Assay [13] has as its target T6, CCL5_HUMAN. The experiment in a line: BLI, evasin on nickel sensor.
The target in another assay is T21, CXCL8_HUMAN (human, UniProt P10145 28-99).
T21 sequence: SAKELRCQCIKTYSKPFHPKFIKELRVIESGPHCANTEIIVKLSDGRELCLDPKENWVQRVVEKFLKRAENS
The experiment in a line: BLI, sensor already loaded with CCL5.

For the next assay, the target named is T22, CXCL1_HUMAN (human, UniProt P09341 35-107).
T22 sequence: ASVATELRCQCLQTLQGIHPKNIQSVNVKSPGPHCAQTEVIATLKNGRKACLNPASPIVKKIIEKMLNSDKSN
The experiment in a line: BLI, sensor already loaded with CCL5.

T1 sequence (P80098 24-99 limits assumed): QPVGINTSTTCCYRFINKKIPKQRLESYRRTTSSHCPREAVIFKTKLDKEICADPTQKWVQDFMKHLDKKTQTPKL

B1: P991_AMBCA (other)
chain: ENGEGTTQPDYDNSTDYYNYEDFKCTCPAPHLNNTNGTVMKPIGCYYTCNVTRCTAPDTYPCYNLTEHQAKNLTTSPTTLCAVGNCDHGICVPNGTKELCFKAPNLEE
As for B1, the “IC50, THP1 cell migration” value in the assay with CCL7_HUMAN [1] was determined as 6.51 nM; with CCL3_HUMAN [2], 2.9 nM; in the assay with CCL2_HUMAN [3], 4.78 nM; in the assay with CCL3L1_HUMAN [4], 1.17 nM; with CCL8_HUMAN [5], 2.1 nM; in the assay with CCL5_HUMAN [6], 1.84 nM. Also, the “RT” value turned out to be 4.14 min in the assay with CCL27_HUMAN; 508 min with CCL7_HUMAN [7]; 7 min with CCL19_HUMAN; 42.6 min with CCL3_HUMAN [8]; 102 min in the assay with CCL16_HUMAN; 4.17 min with CCL2_HUMAN [9]. In addition, the “RT” value with CCL23_HUMAN worked out at 32.3 min; in the assay with CCL3L1_HUMAN [10] it was 52 min; with CCL21_HUMAN, 12.1 min; with CCL24_HUMAN it was 7.07 min; with CCL20_HUMAN, 7.03 min; in the assay with CCL4L1_HUMAN, 42.8 min. Besides, the “RT” value with CCL22_HUMAN was 16.8 min; with CCL8_HUMAN [11], 10.8 min; with CCL1_HUMAN, 5.37 min; with CCL4_HUMAN, 32.2 min; with CCL15_HUMAN, 1.08 min; with CCL18_HUMAN it was 185 min. Also, the “RT” value with CCL5_HUMAN [12] was determined as 113 min; in the assay with CCL14_HUMAN, 192 min; with CCL13_HUMAN, 290 min; in the assay with CCL17_HUMAN, 10.3 min; with CCL11_HUMAN, 24.9 min.

B2: P1156:G4S:P1243 (designed binder)
chain: ADDDNELFTVQYCGMNCTKDEGGTWTGCTGKKEGCKCYHESGKNYGLCLSTEYTDFSQYGNPSDSEIEAAKPKRSDTLSHGGGGSRNHTEDNSTEYYDYEEARCACPARHLNNTNGTVLKLLGCHYFCNGTLCTAPDGYPCYNLTAQQVRTLTTYPNTSCAVGVCMKGTCVKNGTMEQCFKTP
notes: also called two-warhead evasin
On to B2, for which the binding result with CCL5_HUMAN [13], in the assay with CXCL8_HUMAN and with CXCL1_HUMAN was “binds” throughout.
